What was measured:
GST-MAT1-2-1 = target: T1, GST-MAT1-2-1 (Penicillium chrysogenum PC3, UniProt B1GVC0 1-303); assay: EMSA; 7 uM protein; more protein needed than for GST-MAT1-1-1; self-competition by unlabelled tom1-2; EMSA: 20 ul reaction, 20 min at room temperature, native 4% polyacrylamide gel, 120 V 2-3 h; buffer, salt and pH not given (Ramsak et al. 2021 protocol); conditions: protein: recombinant; tags: N-terminal GST; label: 32P (probe); blunt
T1 sequence: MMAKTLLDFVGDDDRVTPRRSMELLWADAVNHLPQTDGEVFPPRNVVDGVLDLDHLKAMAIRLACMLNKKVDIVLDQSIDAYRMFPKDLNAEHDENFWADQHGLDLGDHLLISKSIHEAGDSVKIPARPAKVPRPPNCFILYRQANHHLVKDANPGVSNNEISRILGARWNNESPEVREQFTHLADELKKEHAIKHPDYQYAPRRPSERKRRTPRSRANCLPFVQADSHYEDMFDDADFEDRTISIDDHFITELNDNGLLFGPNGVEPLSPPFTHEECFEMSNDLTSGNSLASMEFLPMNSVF

[1] = target: T2, GST-MAT1-1-1;MAT1-2-1 (GST removed) (Penicillium chrysogenum;Penicillium …, UniProt B1GVB9;B1GVC0 1-342;1-303, |); assay: EMSA; 4 uM each protein; complex faster than with GST-MAT1-2-1; EMSA: 20 ul reaction, 20 min at room temperature, native 4% polyacrylamide gel, 120 V 2-3 h; buffer, salt and pH not given (Ramsak et al. 2021 protocol); conditions: protein: recombinant;recombinant; tags: N-terminal GST;none (GST removed by TEV protease); label: 32P (probe); blunt
T2 sequence 1: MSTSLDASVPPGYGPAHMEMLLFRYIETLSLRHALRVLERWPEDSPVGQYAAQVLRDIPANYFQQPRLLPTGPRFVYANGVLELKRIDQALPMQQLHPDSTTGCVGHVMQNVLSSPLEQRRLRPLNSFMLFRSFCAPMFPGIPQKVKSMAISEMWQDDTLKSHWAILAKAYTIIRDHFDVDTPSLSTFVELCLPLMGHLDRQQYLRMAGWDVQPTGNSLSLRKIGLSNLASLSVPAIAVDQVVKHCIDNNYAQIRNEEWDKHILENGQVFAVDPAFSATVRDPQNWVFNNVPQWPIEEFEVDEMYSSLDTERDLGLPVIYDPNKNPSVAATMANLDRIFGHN
T2 sequence 2: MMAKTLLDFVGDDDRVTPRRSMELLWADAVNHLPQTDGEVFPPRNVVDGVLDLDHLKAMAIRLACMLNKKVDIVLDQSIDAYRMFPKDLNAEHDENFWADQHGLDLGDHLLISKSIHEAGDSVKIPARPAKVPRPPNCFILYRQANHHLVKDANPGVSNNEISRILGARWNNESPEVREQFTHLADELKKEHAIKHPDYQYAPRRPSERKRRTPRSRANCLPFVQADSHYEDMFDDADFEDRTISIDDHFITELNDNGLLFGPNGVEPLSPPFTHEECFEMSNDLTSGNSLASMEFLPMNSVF

GST-MAT1-1-1 = target: T3, GST-MAT1-1-1 (Penicillium chrysogenum, UniProt B1GVB9 1-342); assay: EMSA; 2.5 uM protein; self-competition by unlabelled tom1-2; EMSA: 20 ul reaction, 20 min at room temperature, native 4% polyacrylamide gel, 120 V 2-3 h; buffer, salt and pH not given (Ramsak et al. 2021 protocol); conditions: protein: recombinant; tags: N-terminal GST; chain copies: 2; label: 32P (probe); blunt
T3 sequence: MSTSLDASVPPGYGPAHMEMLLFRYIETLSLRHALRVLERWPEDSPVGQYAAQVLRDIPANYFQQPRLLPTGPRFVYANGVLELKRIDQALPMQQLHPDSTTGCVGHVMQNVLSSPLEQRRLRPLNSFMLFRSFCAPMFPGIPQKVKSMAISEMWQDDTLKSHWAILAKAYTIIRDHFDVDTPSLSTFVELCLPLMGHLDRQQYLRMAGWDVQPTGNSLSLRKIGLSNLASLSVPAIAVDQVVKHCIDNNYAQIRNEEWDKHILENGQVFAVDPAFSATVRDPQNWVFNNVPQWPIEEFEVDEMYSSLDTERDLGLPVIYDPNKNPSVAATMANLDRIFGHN

[2] = target: T4, GST-MAT1-1-1;GST-MAT1-2-1 (Penicillium chrysogenum;Penicillium …, UniProt B1GVB9;B1GVC0 1-342;1-303, |); assay: EMSA; 4 uM each protein; slower migrating complex; EMSA: 20 ul reaction, 20 min at room temperature, native 4% polyacrylamide gel, 120 V 2-3 h; buffer, salt and pH not given (Ramsak et al. 2021 protocol); conditions: protein: recombinant;recombinant; tags: N-terminal GST;N-terminal GST; label: 32P (probe); blunt
T4 sequence 1: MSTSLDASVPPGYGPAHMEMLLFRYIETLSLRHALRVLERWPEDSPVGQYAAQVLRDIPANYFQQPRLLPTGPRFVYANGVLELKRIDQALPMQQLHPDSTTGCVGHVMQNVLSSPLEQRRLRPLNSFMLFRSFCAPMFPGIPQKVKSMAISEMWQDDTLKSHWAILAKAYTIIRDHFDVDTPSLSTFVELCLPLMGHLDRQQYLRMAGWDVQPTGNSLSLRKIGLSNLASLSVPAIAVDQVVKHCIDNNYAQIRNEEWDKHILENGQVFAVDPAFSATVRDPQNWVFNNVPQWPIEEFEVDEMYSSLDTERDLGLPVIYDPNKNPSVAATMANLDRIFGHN
T4 sequence 2: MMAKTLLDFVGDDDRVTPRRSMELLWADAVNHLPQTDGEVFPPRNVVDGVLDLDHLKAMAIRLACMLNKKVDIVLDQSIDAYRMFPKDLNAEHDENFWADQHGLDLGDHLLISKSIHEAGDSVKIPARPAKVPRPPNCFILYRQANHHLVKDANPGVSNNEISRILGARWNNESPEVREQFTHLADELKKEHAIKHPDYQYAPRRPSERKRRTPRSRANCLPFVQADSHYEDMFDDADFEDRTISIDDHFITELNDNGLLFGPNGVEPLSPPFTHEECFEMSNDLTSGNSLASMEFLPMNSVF

Measured: binding result

B1: tom1-2 (dsDNA)
DNA 1: TCACGTGATCTCTATTGAGAACAATAGAA
DNA 2: TTCTATTGTTCTCAATAGAGATCACGTGA
binds: GST-MAT1-2-1 | [1] | GST-MAT1-1-1 | [2]

Source: PMC10512297, “The Penicillium chrysogenum tom1 Gene a Major Target of Transcription Factor MAT1-1-1 Encodes a Nuclear Protein Involved in Sporulation”
